Measured values from US20250122306A1 (SUTRO BIOPHARMA, published 2025).
Residue numbers refer to the chain shown, from its start. One block for each binder: values may come before it.

Tests used:
[1] = target: T1, cynomolgus tissue factor on HEK293T-cynoTF cells (cynomolgus monkey, UniProt P13726 33-294 (human entry)); test: flow cytometry on HEK293T-cynoTF cells, one-site fit of MFI
T1 construct: stably transfected HEK293T cells
T1 chain: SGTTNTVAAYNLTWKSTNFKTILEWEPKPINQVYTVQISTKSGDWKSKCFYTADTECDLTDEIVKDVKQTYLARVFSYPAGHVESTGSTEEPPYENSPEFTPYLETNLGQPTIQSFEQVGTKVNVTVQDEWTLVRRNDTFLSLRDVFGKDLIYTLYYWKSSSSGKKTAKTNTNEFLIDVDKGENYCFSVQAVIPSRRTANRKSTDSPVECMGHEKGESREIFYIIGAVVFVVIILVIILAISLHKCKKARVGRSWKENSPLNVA
Source text: (§1) HEK293T, BxPC3 cells (TF positive) and NCI-H1703 (TF negative) cells were obtained from ATCC (American Type Culture Collection) and maintained in DMEM: F12 (1:1), high glucose (Corning) supplemented with 10% heat-inactivated fetal bovine serum (ThermoScientific), 1× Penicillin/Streptomycin (Corning) and 2 mmol glutamax (Thermo Fisher Scientific). To generate cells that stably expressing human tissue factor (HEK293T-humanTF) or cynomolgus tissue factor (HEK293T-cynoTF), HEK293T cells were transfected with plasmid vectors that contain the corresponding protein sequence and stable clones were selected with puromycin.
(§2) For a fluorescence-activated cell sorting (FACS) cell-binding assay, cells were collected by Accutase and counted by the Vi-CELL Cell Viability Analyzersharvested and, then re-suspended in FACS buffer (DPBS buffer supplemented with 1% bovine serum albumin). A total of 200,000 cells in 100 μL were incubated on ice with 100 μL of anti-TF antibodies in each well of a 96-well plate. Cells were washed twice with ice-cold FACS buffer and then incubated on ice for 60 mins with 5 μg/mL Alexa 647-labeled donkey anti-human Fc antibody (Jackson ImmunoResearch). Unstained cells and cells stained with secondary antibody alone were used as controls. Cells were washed twice with FACS buffer and analyzed using a BD FACS Canto system. Geometric mean fluorescence intensities (MFI) were fitted using non-linear regression analysis with one site specific binding equation on GraphPad Prism (GraphPad Software; La Jolla, CA).

[2] = target: T2, human tissue factor on cells (human, UniProt P13726 33-295); test: flow cytometry on HEK293T-humanTF cells, one-site fit of MFI
T2 construct: cell-surface TF, transfected (HEK293T-humanTF) or endogenous (tumour lines, keratinocytes); the cell line is named under assay; also called HEK293T-humanTF; TF on BxPC3, primary human keratinocytes, NCI-H292, HCC1954, NCI-H1975
Source text: as §1, §2

[3] = target: T3, human tissue factor (human TF, Lake Pharma) (human, UniProt P13726 33-251, limits assumed); test: Biacore SPR kinetics, antibody captured on anti-Fc, 1:1 Langmuir fit
T3 construct: bought recombinant antigen; also called CD142
Experimental: (§3) Anti-Fc polyclonal antibodies were immobilized onto a CM4 chip (Cytiva #BR100534) using amine coupling chemistry (Human Antibody Capture Kit, Cytiva #BR100839). The immobilization steps were carried out at a flow rate of 25 μL/min in 1×HBS-EP+buffer (Cytiva #BR100669). The sensor surfaces were activated for 7 min with a mixture of N-hydroxysuccinimide (NHS, 0.05 M) and 1-ethyl-3-(3-dimethylaminopropyl)-carbodiimide (EDC, 0.2 M). The anti-Fc polyclonal antibodies were injected over all 4 flow cells at a concentration of 25 μg/mL in 10 mM sodium acetate, pH 4.5, for 7 min. Ethanolamine (1 M, pH 8.5) was injected for 7 min to block any remaining activated groups.
(§4) Off-rate and kinetic binding experiments were performed at 25° C. using 1×HBS-EP+buffer. Antibodies were injected over the anti-Fc surface at a concentration of 3 μg/mL for 12 seconds at a flow rate of 10 μL/min on flow cells 2, 3 and 4, followed by a buffer wash for 30 seconds at the same flow rate. Single point off-rate analysis was carried out using an antigen concentration of 100 nM. […] After capturing ligand (antibody) on the anti-Fc surface, the analyte (human TF, Lake Pharma; cynomolgus TF, Sino Bio #90885-C08H; mouse TF, R&D Systems #3178-PA) was bound for 180 seconds, followed by a 420 second dissociation phase at a flow rate of […]. Between each ligand capture and analyte binding cycle, regeneration was carried out using 2 injections of 10 mM glycine pH 2.0 for 30 seconds at 30 μL/min, followed by a 30 second buffer wash step.
(§5) The data were fit with the Biacore T200 Evaluation software, using a 1:1 Langmuir binding model. KD (affinity, nM) was determined as a ratio of the kinetic rate constants calculated from the fits of the association and dissociation phases.

[4] = target: T4, cynomolgus tissue factor (cynomolgus TF, Sino Bio #90885-C08H) (cynomolgus monkey, UniProt P13726 33-251 (human entry)); test: as above
T4 construct: bought recombinant antigen; also called cyno TF
T4 chain: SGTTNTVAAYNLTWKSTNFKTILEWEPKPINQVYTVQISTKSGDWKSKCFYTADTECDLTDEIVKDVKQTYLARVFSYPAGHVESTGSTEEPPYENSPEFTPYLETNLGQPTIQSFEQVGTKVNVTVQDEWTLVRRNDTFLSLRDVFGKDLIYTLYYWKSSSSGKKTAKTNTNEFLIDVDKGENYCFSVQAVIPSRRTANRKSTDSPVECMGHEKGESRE
Experimental: as §3, §4, §5

[5] = target: T3, human tissue factor (human TF, Lake …); test: Biacore SPR, single-point off-rate (100 nM antigen), antibody captured on anti-Fc
Experimental: as §3, §4

[6] = target: T4, cynomolgus tissue factor (cynomolgus …); test: as above
Experimental: as §3, §4

[7] = target: T2, human tissue factor on cells; test: flow cytometry on BxPC3 cells (TF positive), one-site fit of MFI
Source text: as §1, §2

[8] = target: tissue factor reagent of the Tissue Factor Activity Assay Kit (Abcam #ab108906) (UniProt P13726 33-295, limits assumed); test: cell-based or functional assay

B1: mAb 46: aTF_2900-H09_HC_Y180/F404TAG_SerOpt; Trastuzumab LC SerOpt (antibody, human IgG1, kappa, V domains shown)
VH: EVQLVESGGGLVQPGGSLRLSCAASGFTISDYVIHWVRQAPGKGLEWVGYIDPSNGYTYYADSVKGRFTISADTSKNTAYLQMNSLRAEDTAVYYCARDDQSISSPLDYWGQGTLVTVSS
VL: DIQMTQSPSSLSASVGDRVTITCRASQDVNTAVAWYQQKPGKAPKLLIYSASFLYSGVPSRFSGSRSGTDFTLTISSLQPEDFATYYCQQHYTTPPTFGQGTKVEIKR
modifications: non-natural amino acid (pAMF) at TAG sites Y180 and F404 (EU), * in the sequence
notes: unconjugated full-length IgG1/kappa
Bmax (MFI) [1]: 483000 MFI | Kd [1]: 38 nM | Bmax (MFI) [2]: 300000 MFI | Kd [2]: 0.93 nM | Kd [3]: 6.24 nM | koff [3]: 0.00226 s⁻¹ | kon [3]: 362000 M⁻¹ s⁻¹ | Kd [4]: 41.6 nM | koff [4]: 0.00681 s⁻¹ | kon [4]: 164000 M⁻¹ s⁻¹

B4: mAb 44: aTF_2900-F09_HC_Y180/F404TAG_SerOpt; Trastuzumab LC SerOpt (antibody, human IgG1, kappa, V domains shown)
VH: B1 VH with S30H
VL: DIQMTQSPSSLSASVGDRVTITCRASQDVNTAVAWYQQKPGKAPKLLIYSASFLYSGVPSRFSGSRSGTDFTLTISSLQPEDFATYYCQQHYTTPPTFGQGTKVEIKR
modifications: non-natural amino acid (pAMF) at TAG sites Y180 and F404 (EU), * in the sequence
notes: as for B1
Bmax (MFI) [1]: 429000 MFI | Kd [1]: 29 nM | Bmax (MFI) [2]: 296000 MFI | Kd [2]: 0.9 nM | Kd [3]: 5.42 nM | koff [3]: 0.00196 s⁻¹ | kon [3]: 362000 M⁻¹ s⁻¹ | Kd [4]: 18.9 nM | koff [4]: 0.00309 s⁻¹ | kon [4]: 164000 M⁻¹ s⁻¹

B6: SRP2799-A05 (antibody, IgG1, V domains shown)
VH: EVQLVESGGGLVQPGGSLRLSCAASGFNISSYWIHWVRQAPGKGLEWVGYIDPYSGSTYYADSVKGRFTISADTSKNTAYLQMNSLRAEDTAVYYCARSDYYYVDEYMDYWGQGTLVTVSS
VL: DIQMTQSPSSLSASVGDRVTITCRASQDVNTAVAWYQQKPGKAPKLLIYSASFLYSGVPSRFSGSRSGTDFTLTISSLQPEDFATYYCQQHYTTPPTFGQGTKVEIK
notes: also called SRP2799-A05 (parent)
koff [5]: 0.00304 s⁻¹ | koff [6]: 0.0337 s⁻¹ | Bmax (MFI) [7]: 52700 MFI | Kd [7]: 26.1 nM | FX conversion (% inhibition), 1000 nM antibody [8]: 1.12%

The remaining binders from weak to strong by Kd [1], led by results:

Bmax (MFI) [1]: 419000 MFI | Kd [1]: 21 nM | Bmax (MFI) [2]: 253000 MFI | Kd [2]: 1.7 nM | Kd [3]: 19.1 nM | koff [3]: 0.00594 s⁻¹ | kon [3]: 311000 M⁻¹ s⁻¹ | Kd [4]: 7.33 nM | koff [4]: 0.00231 s⁻¹ | kon [4]: 316000 M⁻¹ s⁻¹
B5: mAb 43: aTF_2900-F06_HC_Y180/F404TAG_SerOpt; Trastuzumab LC SerOpt (antibody, human IgG1, kappa, V domains shown)
VH: B1 VH with D31I, V33T, F68L, D100P, L107F
VL: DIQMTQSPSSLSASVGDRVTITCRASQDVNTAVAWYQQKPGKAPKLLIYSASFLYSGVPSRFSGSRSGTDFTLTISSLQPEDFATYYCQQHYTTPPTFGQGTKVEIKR
modifications: non-natural amino acid (pAMF) at TAG sites Y180 and F404 (EU), * in the sequence
notes: as for B1

Bmax (MFI) [1]: 426000 MFI | Kd [1]: 16 nM | Bmax (MFI) [2]: 275000 MFI | Kd [2]: 0.8 nM | Kd [3]: 3.59 nM | koff [3]: 0.000674 s⁻¹ | kon [3]: 188000 M⁻¹ s⁻¹ | Kd [4]: 24.2 nM | koff [4]: 0.00309 s⁻¹ | kon [4]: 128000 M⁻¹ s⁻¹
B2: mAb 42: aTF_2900-C11_HC_Y180/F404TAG_SerOpt; Trastuzumab LC SerOpt (antibody, human IgG1, kappa, V domains shown)
VH: B1 VH with D31Q, V33W, S54Y, D100Y, Q101G, I103W, S104R, S105I, P106R
VL: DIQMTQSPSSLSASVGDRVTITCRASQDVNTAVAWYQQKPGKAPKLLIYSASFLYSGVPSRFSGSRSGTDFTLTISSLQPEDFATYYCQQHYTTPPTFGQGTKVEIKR
modifications: non-natural amino acid (pAMF) at TAG sites Y180 and F404 (EU), * in the sequence
notes: as for B1

Bmax (MFI) [1]: 441000 MFI | Kd [1]: 7.5 nM | Bmax (MFI) [2]: 302000 MFI | Kd [2]: 1.3 nM | Kd [3]: 7.78 nM | koff [3]: 0.00426 s⁻¹ | kon [3]: 547000 M⁻¹ s⁻¹ | Kd [4]: 0.255 nM | koff [4]: 0.000309 s⁻¹ | kon [4]: 1.21e+06 M⁻¹ s⁻¹
B3: mAb 45: aTF_2900-H06_HC_Y180/F404TAG_SerOpt; Trastuzumab LC SerOpt (antibody, human IgG1, kappa, V domains shown)
VH: B1 VH with S30A, D31A, V33I, I103F, L107F
VL: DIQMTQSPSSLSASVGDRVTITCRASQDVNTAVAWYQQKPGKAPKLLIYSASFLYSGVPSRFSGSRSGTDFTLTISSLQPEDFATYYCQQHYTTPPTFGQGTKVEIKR
modifications: non-natural amino acid (pAMF) at TAG sites Y180 and F404 (EU), * in the sequence
notes: as for B1
